Measurements reported in the nanobody polyreactivity screen of Harvey et al. (2022).

Test: yeast display, Sf9 membrane polyspecificity reagent, FACS + sequencing; frameworks hold sequencing errors
Method in brief: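 Using colony PCR, genes from sorted yeast display clones were amplified, then sequenced on MiSeq at 2 × 250 and filtered by CDR length. The clones had been stained with 10% biotinylated, detergent-solubilized Sf9 membrane reagent for 1 hour at 4 °C and sorted by FACS into low and high (top ~1%) gates on anti-HA and streptavidin fluorescence. Polyreactivity labels come from the gate of origin.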
In the case of “QVQLVESGGGLVQAGGSLRLSCAASGRIFRYNAMGWYRQAPGKERELVAAISTRGGNTYYADSVKGRFTISRDNAKNTVYLQMNSLKPEDTAVYYCNARSSLPYNYWGQGTQVTVSS”, the “polyreactivity (PSR sort gate)” value is reported as “high polyreactivity”. With “QVQLVESGGGLVQAGGSLRLSCAASGRIFRYNAMGWYRQAPGKERELVAAISWSGGSTYADSVKGRFTISRDNAKNTVYLQMNSLKPEDTAVYFCAADSSDLYVWGYDHGGQGTQVTVSS” the “polyreactivity (PSR sort gate)” value was “low polyreactivity”. With “QVQLVESGGGLVQAGGSLRLSCAASGRIFRYNAMGWYRQAPGKERELVAAITKGGGSTYYADSVKGRFTISRDNAKNTVYLQMTSLNPEDTGVYYCAARRAVYRGNYWGQGTKVTVSS” the “polyreactivity (PSR sort gate)” value was “high polyreactivity”. For “QVQLVESGGGLVQAGGSLRLSCAASGRIFRYNAMGWYRQAPGKERELVASINQRGGYTYYADSVKGRFTISRDNAKNTVYLQMNSLKPEDTAVYYCAADRPRGRETVYYWGQGTQVTVSS”, the “polyreactivity (PSR sort gate)” value was “high polyreactivity”. For “QVQLVESGGGLVQAGGSLRLSCAASGRIFRYNAMGWYRQAPGKERELVASISSSGGSTYYADSVKGRFTISRDTAKNTVYLQMNCLKPEDTAVYYCSAYPGDRHSRINLGYWGQGTQVTVSS”, the “polyreactivity (PSR sort gate)” value was “high polyreactivity”. In the case of “QVQLVESGGGLVQAGGSLRLSCAASGRIFRYNAMGWYRQAPGKERELVATITSGGNTNYADSVKGRFTISRDNAKNTVYLQMISLKPEDTAVYYCNAAEPQWYDAYDYWGQGTQVTVSS”, the “polyreactivity (PSR sort gate)” value is reported as “low polyreactivity”. In the case of “QVQLVESGGGLVQAGGSLRLSCAASGRIFRYNAMGWYRQAPGKEWELVAAIRFSGGSTYYADSVKGRFTLSRDNAKNTVYLHMNSLKPEDTAVYYCAKVYFRVQSGMDYWGQGTQVTVST”, the “polyreactivity (PSR sort gate)” value is reported as “low polyreactivity”. For “QVQLVESGGGLVQAGGSLRLSCAASGRIFRYNTLGWYRQAPGKERELVAAINSSGGRTYYADSVKGRFTISRDNAKNTVYLQMNSLKPEDTAVYYCAAVIYVLSGPGYDYWGQGTQVTVSS”, the “polyreactivity (PSR sort gate)” value was “high polyreactivity”. For “QVQLVESGGGLVQAGGSLRLSCAASGRIFRYNTMGWYRQAPGKERELVADINSGGSTYADSVKGRFTISRDNAKNTVYLQMNSLKPEDTAVYYCNADSGLRAGYYYGYDYWGQGTQVTVSS”, the “polyreactivity (PSR sort gate)” value was “low polyreactivity”. For “QVQLVESGGGLVQAGGSLRLSCAASGRIFRYNTMGWYRQAPGKERELVADITSSDSSTYYADSVKGRFTISRDNAKNTVYLQMNSLKPEDTAVYYCAARDSGYGWRYYYWGQGTQVTVSS”, the “polyreactivity (PSR sort gate)” value was “low polyreactivity”. For “QVQLVESGGGLVQAGGSLRLSCAASGRIFRYNVMGWYRQAPGKERELVAAITSRGGSTYYADSVKGRFTISRDNAKNTVYLQMNSLKPEDTAVYYCAAYPWEFGTYNYWGQGTQVTVSS”, the “polyreactivity (PSR sort gate)” value was “high polyreactivity”. For “QVQLVESGGGLVQAGGSLRLSCAASGRIFRYYAKGWYRQAPGKERELVARIRWSGGSTYYADSVKGRFTISRDNAKNTVYLQMNSLKPEDTAVYYCNAGSWSYRYNYWGQGTQVTVSS”, the “polyreactivity (PSR sort gate)” value was “high polyreactivity”. In the case of “QVQLVESGGGLVQAGGSLRLSCAASGRIFRYYAMGWYRQAAGKERELVAAISYSGGRTYYADSVKGRFTISRDNAKNTVYVQMNSLKPEDTAVYYCASVWHSQSSYVPFDSWGQGTQVTVSS”, the “polyreactivity (PSR sort gate)” value is reported as “high polyreactivity”. In the case of “QVQLVESGGGLVQAGGSLRLSCAASGRIFRYYAMGWYRQAPAKERELVASISRRGGSTNYADSVKGRFTISRDNAKNTVYLQMNSLKPEDTAVYYCNAENWSPRGLYNYWGQGTQVTVSS”, the “polyreactivity (PSR sort gate)” value is reported as “high polyreactivity”. For “QVQLVESGGGLVQAGGSLRLSCAASGRIFRYYAMGWYRQAPGKERELVAAIRWTAGSTYYADSVKGRFTISRDIAKNTVYLQMNSLKPEDTAVYYCATDVWKYGRYEYWGQGTQVTVSS”, the “polyreactivity (PSR sort gate)” value was “low polyreactivity”. With “QVQLVESGGGLVQAGGSLRLSCAASGRIFRYYAMGWYRQAPGKERELVAAISRRGSSTYYADSVKGRFTISRDNAKNTVYLQMNSLKPEDTAVYYCSAKRQVYQSESTYEYWGQGTQVTVSS” the “polyreactivity (PSR sort gate)” value was “high polyreactivity”. In the case of “QVQLVESGGGLVQAGGSLRLSCAASGRIFRYYAMGWYRQAPGKERELVAAISVSGGSTYYADSVKGRFTISRDNAKNTVYLKMNSLKPEDTAVYYCAARIKTYSKRYYWGQATQVTVSS”, the “polyreactivity (PSR sort gate)” value is reported as “high polyreactivity”. In the case of “QVQLVESGGGLVQAGGSLRLSCAASGRIFRYYAMGWYRQAPGKERELVAAISWSGGRTYYADSVKGRFTISRDNAKNSVYLQMNSLIPEDTAVFYCYAGYLYPGYFVREYDYWGQGTQVTVSS”, the “polyreactivity (PSR sort gate)” value is reported as “high polyreactivity”. In the case of “QVQLVESGGGLVQAGGSLRLSCAASGRIFRYYAMGWYRQAPGKERELVAAITAGGGTTYYADSVKGRFTISRDNAKNTVYLQMNSLKPEDTAVYYWAKDGRYYSHYNYWGQGTQVTVSS”, the “polyreactivity (PSR sort gate)” value is reported as “high polyreactivity”. For “QVQLVESGGGLVQAGGSLRLSCAASGRIFRYYAMGWYRQAPGKERELVASSTYYADSVKGRFTISRDNAKNTVYLQMNSLKPEDTAVYYCAAVKGTRGWYDYWGQGTQVTVSS”, the “polyreactivity (PSR sort gate)” value was “high polyreactivity”. In the case of “QVQLVESGGGLVQAGGSLRLSCAASGRIFRYYAMGWYRQATGKQRELVAAISSGVGNTYYADSVKGRFTISRDNAKNTVYLQMNSLKPEDTAVYYCNAKWRKFGTVRYDYWGQGTQVTVSS”, the “polyreactivity (PSR sort gate)” value is reported as “high polyreactivity”. With “QVQLVESGGGLVQAGGSLRLSCAASGRIFRYYDMAWYTQAPGKEREFVAAITRSGAITYYADSVKGRFTKSRDNAKNTVYLQMNSLKPEDTAVYYCAARYWAKFGYWGQGTQVTVSS” the “polyreactivity (PSR sort gate)” value was “low polyreactivity”. With “QVQLVESGGGLVQAGGSLRLSCAASGRIFRYYTMGWYRQAPGKVRELVAAITRRGGITNYADSVTGRFTISRDNAKNTVYLQMNSLKPEDTAVYYCAAKSVSQGDDYWGQGTQVTVSS” the “polyreactivity (PSR sort gate)” value was “high polyreactivity”. For “QVQLVESGGGLVQAGGSLRLSCAASGRIFRYYVLGWYRQAPGKERELVATINWSGSRTYYADSVKGRFTISRDNAKNTVYLQMNSLKPEDTAVYYCAARTFNTYPRYYYWGQGTQVTVSS”, the “polyreactivity (PSR sort gate)” value was “high polyreactivity”. In the case of “QVQLVESGGGLVQAGGSLRLSCAASGRIFRYYVMGWYRQAPGKERELVAAISRSGGSTRYADSVKGRFTISRDNAKNTVYLQMNSLKPEDTAVYYCAATSRSYNDYDYWGQGTQVTVSS”, the “polyreactivity (PSR sort gate)” value is reported as “high polyreactivity”. With “QVQLVESGGGLVQAGGSLRLSCAASGRIFSANAMGWYRQAPGKERELVAAITRGDNTYYADSVKGRFTISRDNAKNTVYLQMNSLKPEDTAVYYCATEGYQIQYEHDYWGQGTQLTVSS” the “polyreactivity (PSR sort gate)” value was “low polyreactivity”. With “QVQLVESGGGLVQAGGSLRLSCAASGRIFSDYAMGWYIQAPGKERELVAAISWGGGRTYYADSVKGRFTISRDNAKNTVYLQMNSLKPEDTAVYYCNRGTVNSWARGYWGQGTQVTVSS” the “polyreactivity (PSR sort gate)” value was “high polyreactivity”. For “QVQLVESGGGLVQAGGSLRLSCAASGRIFSDYAMGWYRQAPGKERELVAAISRSGTRTYYADSVKGRFTISRDNAKNTVYLQMNSLKPEDTAVYSCAAKTPYGRAGQEEDYCGQGTQVTVSS”, the “polyreactivity (PSR sort gate)” value was “high polyreactivity”. For “QVQLVESGGGLVQAGGSLRLSCAASGRIFSFYAMGWYRQAPGKERELVATISKRAGSTYYADSVKGRFTISRDNAKNTVYLQMNSLKPEDTEVYYCYAYKRGYLYRYNYWGQGTQVTVSS”, the “polyreactivity (PSR sort gate)” value was “high polyreactivity”. With “QVQLVESGGGLVQAGGSLRLSCAASGRIFSFYTMGWYRQAPGKERELVAAITWRGGSTYYADSVKGRFTISRDNAKNTVYLQMNSLKPEDTAVYYCAAEVYGAVYDYWGQGTQVTVSS” the “polyreactivity (PSR sort gate)” value was “low polyreactivity”. With “QVQLVESGGGLVQAGGSLRLSCAASGRIFSGNAMGWYRQAPGKERELVARISRSGSNTYYADSVKGRFTISRDNAKNTVYLQMKSLKPEDTAVYYCAAKSTYWPYDRTYNSWGQVTQVTVSS” the “polyreactivity (PSR sort gate)” value was “high polyreactivity”. In the case of “QVQLVESGGGLVQAGGSLRLSCAASGRIFSGYAMGWDRQAPGKERELVAAITSRSGSTYYADSVKGRFTISRDNAKNTVYLQMNSLKPEDTAVYYCAKRLYKPGNVFYSVDQSDYWGQGTQVTVSS”, the “polyreactivity (PSR sort gate)” value is reported as “low polyreactivity”. For “QVQLVESGGGLVQAGGSLRLSCAASGRIFSGYAMGWYRQAPGKEREFVAAITSSGRTKYADSVKGRFTISRDNAKNTVYLQMNSLKPEDTAVYYCAARPSQWNYDYRRVYYWGQGTQVTVSS”, the “polyreactivity (PSR sort gate)” value was “high polyreactivity”. In the case of “QVQLVESGGGLVQAGGSLRLSCAASGRIFSGYAMGWYRQAPGKERELVAAITSGASTNYADSVKGRFTISRDNAKNTVYLQMNSLKPEDTAVYYCAATYHTWRGQYLWYDYWGQGTQVTVSW”, the “polyreactivity (PSR sort gate)” value is reported as “low polyreactivity”. With “QVQLVESGGGLVQAGGSLRLSCAASGRIFSGYAMGWYRQAPGKERELVAAITSVGSTNYADSVKGRFTISRDNAKNNVYLQMNSLKPEDTAVYYCAARSQSYYRYRSYGYWGQGTQVTVSS” the “polyreactivity (PSR sort gate)” value was “high polyreactivity”. For “QVQLVESGGGLVQAGGSLRLSCAASGRIFSGYAMGWYRQAPGKERELVAAITSVGSTNYADSVKGRFTISRDNAKYTVYLQMNSLKPEDTAVYYCAKDTGQGYYWGQGTQVTVSS”, the “polyreactivity (PSR sort gate)” value was “high polyreactivity”. In the case of “QVQLVESGGGLVQAGGSLRLSCAASGRIFSGYAMGWYRQAPGKEWELVAAITWSGGSTYADSVKGRFTISRDNAKHTVYLQMNTLKPEDTAVYYCNTSARYNGSYKYDYWGQGTQVTVSS”, the “polyreactivity (PSR sort gate)” value is reported as “low polyreactivity”. With “QVQLVESGGGLVQAGGSLRLSCAASGRIFSHYAMAWYRQAPGKERELVAAITSDRSTNYADSVKGRFTISRDNANNTVYLQMNSLKPDDTAVYYCAKYVHIPYYYYLFGSYDYWGQGTQVTVSS” the “polyreactivity (PSR sort gate)” value was “low polyreactivity”. In the case of “QVQLVESGGGLVQAGGSLRLSCAASGRIFSHYAMGWYRQAPGKERELVAAINRSGGSTYYADSVKGRFTISRDNAKNTVYLQMNSLKPEDTAVYYCAATSLRRYGYNYWGQGTQVTVSS”, the “polyreactivity (PSR sort gate)” value is reported as “high polyreactivity”. For “QVQLVESGGGLVQAGGSLRLSCAASGRIFSHYAMGWYRQAPGKERELVAAITWSGGRTYYADSVKGRFTISRDNAKNTVYLQMNSLKPEDTAVYYCNAYPSSSLFDYWGQGTQVTVSS”, the “polyreactivity (PSR sort gate)” value was “low polyreactivity”. For “QVQLVESGGGLVQAGGSLRLSCAASGRIFSKYAMGWNRQAPGKERELVAAITSSTKYADSVKGRFTISRDNAKNTVYLQMNSLKPEDTAVYYCNAEFGWHTYYGADFKMDYWGQGTQVTVSS”, the “polyreactivity (PSR sort gate)” value was “high polyreactivity”. In the case of “QVQLVESGGGLVQAGGSLRLSCAASGRIFSKYAMGWYRQAPGKEMELDAAITRSGGSTYYADSVKGRFTISRDNAKNTVYLQMNSLKPEDTAVYYCNAGTYSTSVPYRYNYWGQGTQVTVSS”, the “polyreactivity (PSR sort gate)” value is reported as “high polyreactivity”. With “QVQLVESGGGLVQAGGSLRLSCAASGRIFSLNAMGWYRQAPGKERELVAGIRKRGGSTYYADSVKGRFTISRDNAKNTVYLQMNSLKPEDTAVYYCAARFYYGPGGYTMYYWGQGTQVTVSS” the “polyreactivity (PSR sort gate)” value was “high polyreactivity”.
